Data taken from IntAct's records for PubMed 19805289.

B1: ATP-dependent RNA helicase DBP5 (Saccharomyces cerevisiae), P20449 (parent)
chain: MSDTKRDPADLLASLKIDNEKEDTSEVSTKETVKSQPEKTADSIKPAEKLVPKVEEKKTKQEDSNLISSEYEVKVKLADIQADPNSPLYSAKSFDELGLAPELLKGIYAMKFQKPSKIQERALPLLLHNPPRNMIAQSQSGTGKTAAFSLTMLTRVNPEDASPQAICLAPSRELARQTLEVVQEMGKFTKITSQLIVPDSFEKNKQINAQVIVGTPGTVLDLMRRKLMQLQKIKIFVLDEADNMLDQQGLGDQCIRVKRFLPKDTQLVLFSATFADAVRQYAKKIVPNANTLELQTNEVNVDAIKQLYMDCKNEADKFDVLTELYGLMTIGSSIIFVATKKTANVLYGKLKSEGHEVSILHGDLQTQERDRLIDDFREGRSKVLITTNVLARGIDIPTVSMVVNYDLPTLANGQADPATYIHRIGRTGRFGRKGVAISFVHDKNSFNILSAIQKYFGDIEMTRVPTDDWDEVEKIVKKVLKD
partner: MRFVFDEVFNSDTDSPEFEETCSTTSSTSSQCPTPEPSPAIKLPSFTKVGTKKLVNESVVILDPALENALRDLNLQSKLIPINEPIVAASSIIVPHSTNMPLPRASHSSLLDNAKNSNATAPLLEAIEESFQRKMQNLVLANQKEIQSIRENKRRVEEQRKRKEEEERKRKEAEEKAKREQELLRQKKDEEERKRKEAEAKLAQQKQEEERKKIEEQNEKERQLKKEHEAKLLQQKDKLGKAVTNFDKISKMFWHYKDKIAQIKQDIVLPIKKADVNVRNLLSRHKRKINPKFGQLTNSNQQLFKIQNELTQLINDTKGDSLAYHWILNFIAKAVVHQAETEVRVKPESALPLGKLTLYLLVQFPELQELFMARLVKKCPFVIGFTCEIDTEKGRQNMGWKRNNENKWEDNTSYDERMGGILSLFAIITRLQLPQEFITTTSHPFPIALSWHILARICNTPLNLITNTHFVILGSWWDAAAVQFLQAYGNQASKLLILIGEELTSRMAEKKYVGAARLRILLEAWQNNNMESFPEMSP

Variants of: B1
Conditions: with gle1_yeast GLE1, Q12315

| Variant | effect of a mutation on the interaction |
| --- | --- |
| E323K | disrupting interaction |
| T329A | decreasing interaction |
| E353K | decreasing interaction |
| K382E | disrupting interaction |
| E473A | decreasing interaction |
| E473K | disrupting interaction |

Variants of: B1
Conditions: with gle1_yeast GLE1, Q12315
Remark: another data set of the same source

| Variant | effect of a mutation on the interaction |
| --- | --- |
| E323K | decreasing interaction |
| K382E | decreasing interaction |
| E473K | decreasing interaction |
